Laboratory results reported in patent US20110105733A1 (Ablynx, published 2011).
Where a chain is given by its changes, count along the chain named.

B1: 181B3 (VHH)
VHH: EVQLVESGGGLVQAGGSLRLSCVVSGSILSINTMDWYRQAPGKQREWFAGLSDGGRANYADSVKDRFTIARDNAKNTVYLQMNSLKPGDTAIYYCAADLWDRGATTGRYWGQGTQVTVSS
notes: detection there was with anti-VHH
B2: 181D3 (VHH)
VHH: EVQLVESGGGLVQAGGSLRLSCAASTNVSSFNTMSWYRQSPRKQREWVATITDGDNTHYADSVKGRFTTSRDNAKNLLYLQMNSLKPEDTAVYYCTGWRATSGGSYGQGTQVTVSS
notes: Nanobody against human Notch-2, 'generated as above'
B3: 181D2 (VHH)
VHH: EVQLVESGGGLVQPGGSLRLSCAASGRINSMNWYRQAPGKEREWVASITSSGTTIYADSVKGRITISEDNAKNTVYLQMNSLKTEDTGVYYCAANLRNARGSYYGQGTQVTVSS
notes: as for B2
B4: 179F6 (VHH)
VHH: EVQLVESGGGLVQAGGSLRLSCAASGSDFSGFLLGWYRQPPGKQRELIAQTTDGGRTNYGDSVKGRFTISRDNAKNTWYLQMDSLKPEDTGVYYCNTFPLTSWGQGTQVTVSS
notes: Nanobody against human DLL4; not shown: C-terminal c-myc tag and His6 tag coded by vector pAX50
B5: 179D12 (VHH)
VHH: EVQLVESGGGLVQAGGSLRLSCVASGDTSEIYDMGWFRQAPGKEREFVSSIHWGGRGTNYTDSVKGRFTISKDNAKNMVYLQMNSLKPEDTAVYYCAATRLIVYTPTGFRQYFDWGQGTQVTVSS
notes: as for B4
B6: 179A10 (VHH)
VHH: B5 VHH with Y80H
notes: as for B4
B7: 179E6 (VHH)
VHH: B5 VHH with V23I, G54R, K65E, T119A
notes: as for B4
B8: 179F7 (VHH)
VHH: EVQLVESGGGLVQSGGSLSLSCAASGSVLRINDMGWYRQAPGKTREMVATITRSGVLNYTDSVKGRFTVSRDDAKNTVYLQMSSLKPEDTAVYSCFANIVIRSSGYFNRYWGQGTLVTVSS
notes: as for B4
B9: 180C1 (VHH)
VHH: EVQLVESGGDLVQPGGSLRLSCAASRTVFSISDMGWSRQAPGKERELVASISSDNYTVYADAAKGRFTISRDNSKNTVYLEMNSLKPDDTAVYYCRVVDPLRGKLYWGQGTQVTVSS
B10: 180B3 (VHH)
VHH: B9 VHH with R26G, I31N, S32N, I51F, S52T, D54G, N55G, Y56N, P100L
B11: 180F10 (VHH)
VHH: B9 VHH with R26A, I31N, S52T, S53T, N55G, Y56N, V58L, T68A, S70Y, P100L
B12: 180A4 (VHH)
VHH: EVQLVESGGGLVQPGGSLRLSCAASGRTSSPIAMGWFRQAPGKEREFVSGITWSGAYTHYANSVKGRFTISRDSAKNTVYLQMNSLKPEDTAVYYCTTATNSTTGYDYWGQGTQVTVSS
B13: 180F4 (VHH)
VHH: EVQLVESGGGLVQAGDSLRLSCAVSGGSFSSYTMGWVRQAPGKEREAVASIWRSGGNTYYADSVKGRFTVSRDNAKHTVYLQMNSLKPEDTAVYYCAAASFAPGSRGYDYWGQGTQVTVSS
B14: 178D9 (VHH)
VHH: EVQLVKSGGGLVQPGGSLRLSCAASGSIVSANLIGWYRQAPGKQREGVAFITSGGAINYADSVKGRFTISRDDAKNTVYLQMNSLKPEDTAIYYCNLRQLGNVYWAQGTQVTVSS
notes: Nanobody against rat Jagged-1; not shown: C-terminal c-myc tag and His6 tag coded by vector pAX50
B15: 178A7 (VHH)
VHH: EVQLVESGGGLVQPGGSLRLSCATSGVIFSTAAMGWYRQAPGKSRVLVARMFSDGRTIYAESVKRRFTISRDNAKNTVYLQMNSLEPEDTAVYYCNALQFGAVYWGQGTQVTVSS
notes: as for B14
B16: 180F8 (VHH)
VHH: B9 VHH with A23T, A24T, R26G, S32N, E44G, D54E, N55G, Y56T, V58I
notes: Nanobody against human Notch-1
B17: 4H2 (VHH)
VHH: EVQLVESGGGLVQAGGSLRLSCATSGFTFSRFDMSWFRQAPGKQREFIATIFSGGDTDYIDSVKGRFTISRDNAKNTVYLQMNSLKPEDTAVYYCCPLGIEYAWGQGTQVTVSS
B18: 181E3 (VHH)
VHH: EVQLVESGGGLVQPGGSLRLSCAASGFTFGDYAMNWVRQAPGKGLEWVSSISAGGYSTTYADSVKGRFTISRDNAKNTLYLQMNSLNPEDTAVYYCARGDWRYGSRGQGTQVTVSS
notes: as for B2
B19: 50C4 (VHH)
VHH: EVQLVESGGDLVQPGGSLRLSCAASGFTFSTYYMSWVRQAPGKGLEWVSGIYSDGSNTYYADSVKGRFTISRDNAKNTLYLQMNSLKSEDTAVYYCTRPVVVAGSPVSYEYDYIGQGTQVTVSS
notes: Nanobody against human Notch-3
B20: 50H9 (VHH)
VHH: B19 VHH
notes: as for B19

molecular target: human Notch-2 (R&D Systems Cat #3735-NT-050), Notch-2-Fc fusion (human) (UniProt Q04721); experiment: ELISA: human Notch-2 coated at 2 ug/mL, Nanobody series 25 pM-2000 nM, detection by rabbit anti-VHH and DAMPO, OD 490 nm

Row | Binder | EC50 (read off the curve) [nM]
1 | B1 | 2
2 | B2 | 5
3 | B3 | 5

molecular target: T1, human DLL4 (rhDLL4, R&D Systems Cat #1506-D4-050) (human, UniProt Q9NR61 27-529); experiment: ELISA: rhDLL4 coated at 5 ug/mL, Nanobody series, detection by mouse anti-Myc tag (9E10) and DAMPO, OD 490 nm
T1 construct: extracellular domain; Bought reagent
T1 sequence (Q9NR61 27-529): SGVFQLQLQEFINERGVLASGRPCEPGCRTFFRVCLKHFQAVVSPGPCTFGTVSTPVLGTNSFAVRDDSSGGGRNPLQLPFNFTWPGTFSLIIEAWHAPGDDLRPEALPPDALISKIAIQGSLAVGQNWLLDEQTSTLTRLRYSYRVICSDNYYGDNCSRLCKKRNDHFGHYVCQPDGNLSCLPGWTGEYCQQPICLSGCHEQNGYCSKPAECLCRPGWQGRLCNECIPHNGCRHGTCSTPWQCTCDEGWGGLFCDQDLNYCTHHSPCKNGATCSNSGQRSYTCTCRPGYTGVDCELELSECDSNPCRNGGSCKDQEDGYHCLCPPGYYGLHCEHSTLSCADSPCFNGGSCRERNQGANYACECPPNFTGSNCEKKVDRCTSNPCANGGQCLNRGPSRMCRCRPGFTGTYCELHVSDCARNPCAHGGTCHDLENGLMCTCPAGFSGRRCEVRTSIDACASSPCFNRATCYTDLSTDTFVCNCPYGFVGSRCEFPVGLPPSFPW
Procedure: Two rounds of phage display selection were performed similarly as described above. Binding assays were performed. In short: Maxisorp plate was coated with 100 ul 5 ug/ml of rhDLL4 (R&D systems) in PBS O/N at 4° C. After washing the plate was blocked with 4% MPBS for 30 minutes hour on shaker. A concentration series of Nanobody (1-1000 nM) was added in 100 ul 2% Marvell/PBS and incubate for 1 hour on shaker. Nanobody was detected with 100 ul 1:5000 Mouse-anti-MycTag (9E10) in 2% Marvell/PBS and with 100 ul 1:5000 DAMPO in 2% Marvell/PBS for 1 hour on shaker. After washing PO was detected with 100 ul OPD and stopped with 50 ul H2SO4. Quantification was performed at 490 nm in a plate reader.

Row | Binder | binding result
4 | B4 | binds
5 | B5 | binds
6 | B6 | binds
7 | B7 | binds
8 | B8 | binds

molecular target: T2, recombinant human Notch-1/Fc Chimera (R&D Systems Cat No 3647-TK) (human, UniProt P46531 19-526); experiment: ELISA: human Notch-1/Fc coated at 2 ug/mL, Nanobody series, detection by mouse anti-Myc tag and DAMPO, OD 490 nm
T2 construct: Bought reagent; also called rhNotch-1/hFc; rhNotch-1; not shown: human Fc (hFc)
Procedure: After washing the plate was blocked using 4% Marvel skimmed milk in PBS for 30 minutes on shaker. A concentration series of Nanobody (1 to 1000 nM) was added in 100 microliter 2% Marvell/PBS and incubated for 1 h on shaker. […] PO was detected with 100 microliter OPD and stopped with 50 microliter H2SO4. Quantification was performed at 490 nm in a plate reader.

Row | Binder | EC50 (read off the curve) [nM]
9 | B9 | ~20
10 | B10 | ~6
11 | B11 | ~5
12 | B12 | ~7
13 | B13 | ~20

molecular target: T3, rat Jagged-1 (rrJagged-1, R&D Systems Cat #599-JG) (rat, UniProt Q63722 34-1067); experiment: ELISA: rat Jagged-1 (rrJagged-1) coated at 2 ug/mL, Nanobody series, detection by mouse anti-Myc tag and DAMPO, OD 490 nm
T3 construct: extracellular domain; Bought reagent; also called non-biotinylated Jagged-1; cold-jagged1
Procedure: Two rounds of phage display selection were performed similarly as described above. Binding assays were performed. In short: Maxisorp plate was coated with 100 ul 2 ug/ml of rrJagged-1 (R&D systems) in PBS O/N at 4 C. After washing the plate 4× with PBS the plate was blocked with 4% Marvel in PBS for 30 minutes on shaker. A concentration series of Nanobody (1-1000 nM) was added in 100 ul 2% Marvell/PBS and incubate for 1 hour on shaker. After washing the plate 4× with PBS the Nanobodies were detected with 100 ul 1:5000 Mouse-anti-MycTag in 2% Marvell/PBS for 1 hour and 100 ul 1:5000 DAMPO in 2% Marvell/PBS for 1 hour. After washing the DAMPO was detected with 100 ul OPD, stopped with 50 ul H2SO4 and quantification was performed at 490 nm in a plate reader.

Row | Binder | binding result | EC50 (read off the curve) [nM]
14 | B14 | binds | –
15 | B15 | – | ~20

molecular target: T2, recombinant human Notch-1/Fc Chimera …; experiment: ELISA: human Notch-1 coated at 2 ug/mL, Nanobody series 25 pM-2000 nM, detection by rabbit anti-VHH and DAMPO, OD 490 nm
Procedure: (§1) After washing, the plate was blocked using 4% Marvel skimmed milk in PBS for 30 minutes on shaker. A concentration series of the Nanobodies in Table B-5 (25 pM to 2000 nM) was added in 100 microliter 2% Marvell/PBS and incubated for 1 h on shaker. After washing the Nanobodies were detected with 100 microliter 1:2500 R-anti-VHH (1:2500) in 2% Marvell/PBS and 100 microliter 1:5000 DAMPO in 2% Marvell/PBS for 1 h on shaker. PO was detected with 100 microliter OPD and stopped with 50 microliter H2SO4. Quantification was performed at 490 nm in a plate reader.

Row | Binder | EC50 (read off the curve) [nM] | binding result
16 | B16 | 10 to 16 | –
17 | B17 | – | no binding (tested: 2000 nM)
18 | B1 | – | no binding (tested: 2000 nM)
19 | B2 | – | no binding (tested: 2000 nM)
20 | B3 | – | no binding (tested: 2000 nM)
21 | B18 | – | no binding (tested: 2000 nM)

molecular target: T4, human Notch-3 (human, UniProt Q9UM47 40-467, limits assumed); experiment: ELISA: human Notch-3 coated at 2 ug/mL, Nanobody series 25 pM-2000 nM, detection by rabbit anti-VHH and DAMPO, OD 490 nm
T4 construct: Construct not described
T4 sequence (looked up): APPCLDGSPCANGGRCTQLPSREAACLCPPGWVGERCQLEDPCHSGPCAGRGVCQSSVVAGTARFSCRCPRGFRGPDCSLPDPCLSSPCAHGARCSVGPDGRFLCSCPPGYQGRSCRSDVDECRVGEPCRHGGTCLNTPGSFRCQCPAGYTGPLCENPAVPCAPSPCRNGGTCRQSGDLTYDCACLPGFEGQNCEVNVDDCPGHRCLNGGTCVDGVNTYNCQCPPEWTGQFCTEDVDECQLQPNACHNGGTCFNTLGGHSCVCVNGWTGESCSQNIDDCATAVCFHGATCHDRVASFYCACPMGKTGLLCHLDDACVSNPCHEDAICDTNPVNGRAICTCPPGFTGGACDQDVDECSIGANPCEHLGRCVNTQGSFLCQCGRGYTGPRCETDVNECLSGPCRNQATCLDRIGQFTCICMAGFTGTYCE
Procedure: as §1

Row | Binder | binding result | EC50 (read off the curve) [nM]
22 | B16 | no binding (tested: 2000 nM) | –
23 | B17 | no binding (tested: 2000 nM) | –
24 | B19 | – | ~2
25 | B20 | – | ~2
26 | B1 | no binding (tested: 2000 nM) | –
27 | B2 | no binding (tested: 2000 nM) | –
28 | B3 | no binding (tested: 2000 nM) | –
29 | B18 | no binding (tested: 2000 nM) | –
